Data on 3 molecules can be found in PMC11879619.

Where no end group is shown, it is not given here.

The first assay deals with He-PDFR-B, short splice variant of the pigment-dispersing factor receptor of Hypsibius exemplaris (Hypsibius exemplaris).
Consider NAEVLNSLIGLPRLLKDK-NH2 [He-PDF-1, pigment-dispersing factor 1 of Hypsibius exemplaris (synthetic mature peptide)], for which the EC50 of the cAMP response (BRET ratio change of the Epac-L sensor) of HEK293T cells transfected with He-pdfr-B, synthetic peptide at 10^-11 to 10^-5 M stood at 21 nM.
On to NSEILNTIIGLPNKLRQR-NH2 [He-PDF-2, pigment-dispersing factor 2 of Hypsibius exemplaris (synthetic mature peptide)], for which the EC50 of the cAMP response (BRET ratio change of the Epac-L sensor) of HEK293T cells transfected with He-pdfr-B, synthetic peptide at 10^-11 to 10^-5 M stood at 11 nM.
As for NSEILNTLIGLPNKLKQR-NH2 [He-PDF-3, pigment-dispersing factor 3 of Hypsibius exemplaris (synthetic mature peptide)], the EC50 of the cAMP response (BRET ratio change of the Epac-L sensor) of HEK293T cells transfected with He-pdfr-B, synthetic peptide at 10^-11 to 10^-5 M came to 1.6 nM.

The next assay has as its target He-PDFR-A, long splice variant of the pigment-dispersing factor receptor of Hypsibius exemplaris (Hypsibius exemplaris).
On to NAEVLNSLIGLPRLLKDK-NH2 [He-PDF-1, pigment-dispersing factor 1 of Hypsibius exemplaris (synthetic mature peptide)], for which the EC50 of the cAMP response (BRET ratio change of the Epac-L sensor) of HEK293T cells transfected with He-pdfr-A, synthetic peptide at 10^-11 to 10^-5 M was 56 nM.
Regarding NSEILNTIIGLPNKLRQR-NH2 [He-PDF-2, pigment-dispersing factor 2 of Hypsibius exemplaris (synthetic mature peptide)], the EC50 of the cAMP response (BRET ratio change of the Epac-L sensor) of HEK293T cells transfected with He-pdfr-A, synthetic peptide at 10^-11 to 10^-5 M is 34 nM.
With NSEILNTLIGLPNKLKQR-NH2 [He-PDF-3, pigment-dispersing factor 3 of Hypsibius exemplaris (synthetic mature peptide)], the EC50 of the cAMP response (BRET ratio change of the Epac-L sensor) of HEK293T cells transfected with He-pdfr-A, synthetic peptide at 10^-11 to 10^-5 M amounted to 18 nM.
